Starred links: 1 amine or outer side, 2 acyl side, 3 side chain; linkers in the order of their positions; H or OH if unused. Non-standard residues stand in square brackets, D forms with d. No end group written: not given here. Pqa = 4-oxo-6-(1-piperazinyl)-3(4H)-quinazoline-acetic acid, O=C(Cn1cnc2ccc(N3CCN([*:1])CC3)cc2c1=O)[*:2]; PEG30,000 SSA = (PEG-30,000)CH2CH2NHCOCH2CH2CO; NMeR = CN[C@@H](CCCNC(=N)N)C(=O)O
B1: H-Ile-Lys-Pqa-Arg-His-Tyr-Leu-Asn-Leu-Val-Thr-Arg-Gln-(NMe)Arg-1-Nal-NH2 (peptide)
peptide: IKXRHYLNLVTRQRX
modifications: Pqa as third residue; (NMe)Arg as penultimate residue; 1-Nal (1-Naphthyl Alanine) as C-terminal residue; C-terminal amide (NH2)
B2: Pentoyl-Ile-Lys-Pqa-Arg-His-Tyr-Leu-Asn-Trp-Val-Thr-Arg-Gln-(NMe)Arg-Tyr-NH2 (peptide)
peptide: IKXRHYLNWVTRQRY
HELM: PEPTIDE1{[CCCCC(=O)[*:2]].I.K.[O=C(Cn1cnc2ccc(N3CCN([*:1])CC3)cc2c1=O)[*:2]].R.H.Y.L.N.W.V.T.R.Q.[meR].Y.[am]}$$$$V2.0
SMILES: CCCCC(=O)N[C@H](C(=O)N[C@@H](CCCCN)C(=O)N1CCN(c2ccc3ncn(CC(=O)N[C@@H](CCCNC(=N)N)C(=O)N[C@@H](Cc4c[nH]cn4)C(=O)N[C@@H](Cc4ccc(O)cc4)C(=O)N[C@@H](CC(C)C)C(=O)N[C@@H](CC(N)=O)C(=O)N[C@@H](Cc4c[nH]c5ccccc45)C(=O)N[C@H](C(=O)N[C@H](C(=O)N[C@@H](CCCNC(=N)N)C(=O)N[C@@H](CCC(N)=O)C(=O)N(C)[C@@H](CCCNC(=N)N)C(=O)N[C@@H](Cc4ccc(O)cc4)C(N)=O)[C@@H](C)O)C(C)C)c(=O)c3c2)CC1)[C@@H](C)CC
B3: H-Ile-Lys-Pqa-Arg-His-Tyr-Leu-Asn-Leu-Val-Thr-Arg-Gln-(NMe)Arg-4 Methoxy-Phe-NH2 (peptide)
peptide: IKXRHYLNLVTRQRF
modifications: Pqa as third residue; (NMe)Arg as penultimate residue; 4 Methoxy-Phe as C-terminal residue; C-terminal amide (NH2)
B4: ((PEG-30,000)CH(CH3)CH2CO)Ile-Nle-Pqa-Arg-His-Tyr-Leu-Asn-Trp-Val-Thr-Arg-Gln-(NMe)Arg-Tyr-NH2 (peptide)
peptide: IXXRHYLNWVTRQRY
modifications: (PEG-30,000)CH(CH3)CH2CO (PEG30,000 beta-SBA) on the N-terminal Ile; Nle as second residue; Pqa as third residue; (NMe)Arg as penultimate residue; C-terminal amide (NH2)
B5: Cyclohexylacetyl-Ile-Lys-Pqa-Arg-His-Tyr-Leu-Asn-Trp-Val-Thr-Arg-Gln-(NMe)Arg-Tyr-NH2 (peptide)
peptide: IKXRHYLNWVTRQRY
HELM: PEPTIDE1{[O=C(CC1CCCCC1)[*:2]].I.K.[O=C(Cn1cnc2ccc(N3CCN([*:1])CC3)cc2c1=O)[*:2]].R.H.Y.L.N.W.V.T.R.Q.[meR].Y.[am]}$$$$V2.0
SMILES: CC[C@H](C)[C@H](NC(=O)CC1CCCCC1)C(=O)N[C@@H](CCCCN)C(=O)N1CCN(c2ccc3ncn(CC(=O)N[C@@H](CCCNC(=N)N)C(=O)N[C@@H](Cc4c[nH]cn4)C(=O)N[C@@H](Cc4ccc(O)cc4)C(=O)N[C@@H](CC(C)C)C(=O)N[C@@H](CC(N)=O)C(=O)N[C@@H](Cc4c[nH]c5ccccc45)C(=O)N[C@H](C(=O)N[C@H](C(=O)N[C@@H](CCCNC(=N)N)C(=O)N[C@@H](CCC(N)=O)C(=O)N(C)[C@@H](CCCNC(=N)N)C(=O)N[C@@H](Cc4ccc(O)cc4)C(N)=O)[C@@H](C)O)C(C)C)c(=O)c3c2)CC1
B6: H-Ile-Lys-Pqa-Arg-His-Tyr-Leu-Asn-Leu-Val-Thr-Arg-Gln-(NMe)Arg-Cha-NH2 (peptide)
peptide: IKXRHYLNLVTRQRX
modifications: Pqa as third residue; (NMe)Arg as penultimate residue; Cha (Cyclohexyl Alanine) as C-terminal residue; C-terminal amide (NH2)
B7: Trimethylacetyl-Ile-Lys-Pqa-Arg-His-Tyr-Leu-Asn-Trp-Val-Thr-Arg-Gln-(NMe)Arg-Tyr-NH2 (peptide)
peptide: IKXRHYLNWVTRQRY
HELM: PEPTIDE1{[CC(C)(C)C(=O)[*:2]].I.K.[O=C(Cn1cnc2ccc(N3CCN([*:1])CC3)cc2c1=O)[*:2]].R.H.Y.L.N.W.V.T.R.Q.[meR].Y.[am]}$$$$V2.0
SMILES: CC[C@H](C)[C@H](NC(=O)C(C)(C)C)C(=O)N[C@@H](CCCCN)C(=O)N1CCN(c2ccc3ncn(CC(=O)N[C@@H](CCCNC(=N)N)C(=O)N[C@@H](Cc4c[nH]cn4)C(=O)N[C@@H](Cc4ccc(O)cc4)C(=O)N[C@@H](CC(C)C)C(=O)N[C@@H](CC(N)=O)C(=O)N[C@@H](Cc4c[nH]c5ccccc45)C(=O)N[C@H](C(=O)N[C@H](C(=O)N[C@@H](CCCNC(=N)N)C(=O)N[C@@H](CCC(N)=O)C(=O)N(C)[C@@H](CCCNC(=N)N)C(=O)N[C@@H](Cc4ccc(O)cc4)C(N)=O)[C@@H](C)O)C(C)C)c(=O)c3c2)CC1
B8: ((PEC30,000)CH2Cl2NHCOCH2CH2CO)Ile-Nle-Pqa-Arg-His-Tyr-Leu-Asn-Trp-Val-Thr-Arg-Gln-(NMe)Arg-Tyr-NH2 (peptide)
peptide: IXXRHYLNWVTRQRY
modifications: PEG30,000-SSA (PEG-CH2CH2NHCOCH2CH2CO-) on the N-terminal Ile; Nle as second residue; Pqa as third residue; (NMe)Arg as penultimate residue; C-terminal amide (NH2)

Assays:
Assay in all cases: cell-based or functional assay
[1] = target: T1, Y5R
T1 sequence (Q15761 whole entry, species assumed, looked up): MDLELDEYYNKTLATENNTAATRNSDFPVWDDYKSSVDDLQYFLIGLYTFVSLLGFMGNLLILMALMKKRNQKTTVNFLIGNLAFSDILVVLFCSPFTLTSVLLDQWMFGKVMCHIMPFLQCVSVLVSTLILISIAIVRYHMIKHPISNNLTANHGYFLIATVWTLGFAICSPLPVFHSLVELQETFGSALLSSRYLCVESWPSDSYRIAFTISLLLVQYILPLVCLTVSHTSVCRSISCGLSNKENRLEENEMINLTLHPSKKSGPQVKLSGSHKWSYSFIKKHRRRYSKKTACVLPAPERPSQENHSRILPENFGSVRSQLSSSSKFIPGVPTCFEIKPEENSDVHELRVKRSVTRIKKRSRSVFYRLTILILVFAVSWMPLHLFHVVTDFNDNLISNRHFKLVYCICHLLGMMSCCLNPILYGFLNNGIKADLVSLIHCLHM

[2] = target: Y1R
Chain of Y1R (P25929 whole entry): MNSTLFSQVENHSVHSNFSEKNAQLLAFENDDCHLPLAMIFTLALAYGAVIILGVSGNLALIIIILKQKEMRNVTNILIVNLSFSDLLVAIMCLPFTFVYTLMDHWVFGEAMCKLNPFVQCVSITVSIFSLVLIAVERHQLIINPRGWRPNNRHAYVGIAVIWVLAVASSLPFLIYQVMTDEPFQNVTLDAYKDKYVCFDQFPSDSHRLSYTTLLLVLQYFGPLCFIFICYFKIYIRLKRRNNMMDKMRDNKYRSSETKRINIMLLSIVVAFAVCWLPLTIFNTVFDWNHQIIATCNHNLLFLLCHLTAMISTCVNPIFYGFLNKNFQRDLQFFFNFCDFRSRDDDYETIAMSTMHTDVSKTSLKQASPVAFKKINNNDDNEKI

[3] = target: Y4R
[4] = target: T2, human NPY2 receptor (human, UniProt P49146 1-381)
T2 sequence (looked up): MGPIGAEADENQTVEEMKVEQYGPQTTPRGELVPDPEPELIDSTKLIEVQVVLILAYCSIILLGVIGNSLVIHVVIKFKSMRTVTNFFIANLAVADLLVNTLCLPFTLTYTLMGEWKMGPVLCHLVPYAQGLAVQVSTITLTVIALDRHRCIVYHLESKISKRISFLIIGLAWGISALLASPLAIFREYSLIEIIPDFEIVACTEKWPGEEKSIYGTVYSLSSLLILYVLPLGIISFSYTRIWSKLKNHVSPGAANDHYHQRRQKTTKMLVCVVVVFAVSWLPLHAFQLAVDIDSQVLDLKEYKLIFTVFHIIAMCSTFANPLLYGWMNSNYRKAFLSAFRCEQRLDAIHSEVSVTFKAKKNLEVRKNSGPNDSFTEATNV

Binder | Y5R EC50 (nM) FLIPR [1] [nM] | Y1R EC50 (nM) FLIPR [2] [nM] | Y4R EC50 (nM) FLIPR [3] [nM] | Y2R EC50 (nM) FLIPR [4] [nM] | Y2R EC50 (nM) cAMP [4] [nM]
H-IK(PEG30,000 SSA)[Pqa]RHYLNWVTRQ[NMeR]Y-NH2 | > 5000 | > 5000 | > 5000 |  | 
B1 |  |  |  | 2.73 | 1.14
B2 | > 5000 | > 5000 | > 5000 | 0.873 | 0.51
B3 |  |  |  | 0.74 | 0.55
B4 | > 5000 | > 5000 | > 5000 |  | 
B5 | > 5000 | > 5000 | > 5000 | 1.67 | 1.37
B6 | 352 | > 5000 |  | 0.498 | 0.5
B7 | > 5000 | > 5000 | > 5000 | 1.1 | 0.26
B8 | > 5000 | > 5000 | > 5000 |  | 
IK[Pqa]RHYLNWVTRQ[NMeR]Y-NH2 (also: mixture: PEG40,000 BTC on N-terminal Ile or on Lys ε-amino) | > 5000 | > 5000 | > 5000 |  | 
